Reference: patent publication US20100136573A1, “DIAGNOSING NEURODEGENERATIVE DISEASES” (priority 2007, published 2010)
Numbering of substitutions follows the chain as printed. In names and notes the source's numbering stands.

B1: caspase-3: active human recombinant caspase-3 (CHEMICON) (protein)
chain: SGISLDNSYKMDYPEMGLCIIINNKNFHKSTGMTSRSGTDVDAANLRETFRNLKYEVRNKNDLTREEIVELMRDVSKEDHSKRSSFVCVLLSHGEEGIIFGTNGPVDLKKITNFFRGDRCRSLTGKPKLFIIQACRGTELDCGIETDSGVDDDMACHKIPVEADFLYAYSTAPGYYSWRNSKDGSWFIQSLCAMLKQYADKLEFMHILTRVNRKVATEFESFSFDATFHAKKQIPCIVSMLTKELYFYH
B2: GFP-TDP-25: GFP-tagged 25 kDa (aa 220-414) C-terminal TDP-43 fragment (protein)
chain: VFIPKPFRAFAFVTFADDQIAQSLCGEDLIIKGISVHISNAEPKHNSNRQLERSGRFGGNPGGFGNQGGFGNSRGGGAGLGNNQGSNMGGGMNFGAFSINPAMMAAAQAALQSSWGMMGMLASQQNQSGPSGNNQNQGNMQREPNQAFGSGNNSYSGSNSGAAIGWGSASNAGSGSGFNGGFGSSMDSKSSGWGM
modifications: left off: large carriers
notes: GFP-tagged 25 kDa (aa 220-414) C-terminal TDP-43 fragment
B3: GFP-TDP-25S409A/S410A: mutant GFP-TDP-25 incapable of being phosphorylated at S409/S410 (protein)
chain: B2 chain with S190A, S191A
modifications: left off: large carriers
notes: mutant GFP-TDP-25 incapable of being phosphorylated at S409/S410
B4: GFP-TDP-35: GFP-tagged 35 kDa (aa 90-414) C-terminal TDP-43 fragment (protein, UniProt Q13148 90-414, looked up, fragment)
chain: ASSAVKVKRAVQKTSDLIVLGLPWKTTEQDLKEYFSTFGEVLMVQVKKDLKTGHSKGFGFVRFTEYETQVKVMSQRHMIDGRWCDCKLPNSKQSQDEPLRSRKVFVGRCTEDMTEDELREFFSQYGDVMDVFIPKPFRAFAFVTFADDQIAQSLCGEDLIIKGISVHISNAEPKHNSNRQLERSGRFGGNPGGFGNQGGFGNSRGGGAGLGNNQGSNMGGGMNFGAFSINPAMMAAAQAALQSSWGMMGMLASQQNQSGPSGNNQNQGNMQREPNQAFGSGNNSYSGSNSGAAIGWGSASNAGSGSGFNGGFGSSMDSKSSGWGM
modifications: GFP tag
notes: GFP-tagged 35 kDa (aa 90-414) C-terminal TDP-43 fragment
B5: GFP-TDP-ΔNR1: GFP-tagged C-terminal fragment (aa 193-414) lacking the N-terminus and the RRMI (protein, UniProt Q13148 193-414, looked up, fragment)
chain: VFVGRCTEDMTEDELREFFSQYGDVMDVFIPKPFRAFAFVTFADDQIAQSLCGEDLIIKGISVHISNAEPKHNSNRQLERSGRFGGNPGGFGNQGGFGNSRGGGAGLGNNQGSNMGGGMNFGAFSINPAMMAAAQAALQSSWGMMGMLASQQNQSGPSGNNQNQGNMQREPNQAFGSGNNSYSGSNSGAAIGWGSASNAGSGSGFNGGFGSSMDSKSSGWGM
modifications: GFP tag
notes: GFP-tagged C-terminal fragment (aa 193-414) lacking the N-terminus and the RRMI

Assays:
[1] = molecular target: T1, Recombinant human GST-TDP43 (Homo sapiens, UniProt Q13148); test: In vitro caspase-3 assay; type: biochemical; details: 2 units, 2 and 4 hours, Coomassie staining
T1 construct: Full-length or caspase-3-treated recombinant GST-TDP43 (0.5 μg) was separated by 10% SDS-PAGE
T1 sequence (Q13148 whole entry): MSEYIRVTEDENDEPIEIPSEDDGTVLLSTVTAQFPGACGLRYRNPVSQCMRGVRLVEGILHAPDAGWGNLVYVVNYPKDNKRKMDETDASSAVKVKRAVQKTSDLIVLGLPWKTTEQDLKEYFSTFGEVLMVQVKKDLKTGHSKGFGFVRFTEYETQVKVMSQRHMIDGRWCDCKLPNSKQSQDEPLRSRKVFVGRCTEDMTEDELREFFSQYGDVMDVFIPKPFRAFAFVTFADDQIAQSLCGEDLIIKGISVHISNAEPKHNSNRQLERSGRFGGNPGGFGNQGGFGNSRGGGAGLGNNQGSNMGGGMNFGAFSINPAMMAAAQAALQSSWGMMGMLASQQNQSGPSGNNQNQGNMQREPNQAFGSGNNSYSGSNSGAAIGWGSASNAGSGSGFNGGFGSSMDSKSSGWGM
Description: Recombinant human GST-TDP43 (2 μg) was incubated with active human recombinant caspase-3 (2 units, CHEMICON International, Inc., Temecula, Calif.) in reaction buffer containing 100 mM NaCl, 50 mM HEPES, 10 mM DTT, 1 mM EDTA, 10% glycerol, 0.1% CHAPS, pH 7.4) at 37° C. for 2 hours or 4 hours, respectively. Cleavage reactions were terminated by addition of 2×SDS loading buffer. Full-length or caspase-3-treated recombinant GST-TDP43 (0.5 μg) was separated by 10% SDS-PAGE and stained with Coomassie blue.

[2] = tested on: differentiated M17 neuroblastoma cells; test: Toxicity assay (LDH release, activated caspase-3 staining); type: cell-based
Description: M17 neuroblastoma cells, seeded at 2.5×10^3 cells per well in 24-well plates, were grown in Neurobasal A/B27 medium containing Glutamax (Invitrogen) and 10 μM retinoic acid (Sigma) to induce differentiation. Seven days later, cells were transfected with 0.2 μg of expression vector for 72 hours. The medium was collected, and a LDH assay (Promega) was used to measure LDH levels as an indicator of toxicity. Then, cells were fixed, and immunofluorescent staining was done using an antibody against activated caspase-3 (1:250; Cell signaling) and the nuclear marker, bisbenzimide (Hoechst 33258).
(§1) The cultured HEK293 and differentiated M17 cells were fixed with 4% paraformaldehyde in phosphate-buffered saline (PBS) at 4° C. for 15 minutes and permeabilized with PBS-0.5% Triton X-100 for 10 minutes. After blocking with 5% BSA for 1 hour at 37° C., the cells were incubated overnight at 4° C. with mouse monoclonal HA antibody (1:1000, Roche Applied Science), rabbit polyclonal activated caspase-3 antibody (1:250, Cell Signaling), rabbit polyclonal anti-pTDP-43 (which detects phosphorylated S409/S410; 1:1000, COSMO BIO CO., LTD), mouse monoclonal Flag antibody (1:1000, Sigma), rabbit polyclonal M2085 (1:1000), or rabbit polyclonal M2079 (1:1000). After washing, cells were incubated with the Alexa 568-conjugated goat anti-mouse IgG secondary antibody (1:1000, Molecular Probes) or anti-rabbit IgG secondary antibody (1:500, Molecular Probes) at 37° C. for 2 hours. Finally, Hoechst 33258 (1 μg/mL, Invitrogen) was used to stain the nuclei. Images were obtained on a Zeiss LSM 510 META confocal microscope.

[3] = tested on: TDP-43 exon 9 skipping activity; test: CFTR mini-gene splicing assay; type: cell-based
Description: The CFTR mini-gene splicing assay was conducted as described elsewhere (Pagani et al., J. Biol. Chem., 275(28):21041-21047 (2000) and Ayala et al., FEBS Lett., 580(5):1339-1344 (2006)). In brief, Hela cells were co-transfected with 1 μg of minigene construct and 1 μg of GFP-fusion protein expression vector. […] Then, 2 μg of total RNA was used to synthesize cDNA using the SuperScript III First-Strand Synthesis System (Invitrogen). For the PCR, 2 μL of cDNA was used in a 20 μL of reaction according to the manufacturer's protocol for Taq PCR Core Kit (Qiagen). The amplification conditions consisted of an initial denaturation step at 94° C. for 3 minutes, followed by 30 cycles of 94° C. for 30 seconds, 62° C. for 60 seconds, and 72° C. for 90 seconds.

Flag-TDP-43 = molecular target: T2, Flag-TDP-43 (Homo sapiens, UniProt Q13148); test: Co-immunoprecipitation with Flag-TDP-43; type: binding; details: HeLa cells, probing for GFP
T2 construct: the exon skipping activity in cells overexpressing full-length TDP-43 was examined; expressed in transfected cells; host or cells: HeLa cells
T2 sequence (Q13148 whole entry): as above
Description: (§2) For co-immunoprecipitation studies, HeLa cells were transfected with 1 or 2 μg of each plasmid. Cells were harvested 48 hours later using Co-IP buffer (50 mM Tris-HCl, pH 7.4, 1 M NaCl, 1% Triton X-100, 5 mM EDTA) containing PMSF as well as protease and phosphatase inhibitors. The lysates were sonicated and centrifuged at 16,000 g for 20 minutes. The protein concentration of supernatants was determined by BCA assay (Thermo Scientific). Supernatant containing 500 μg of total protein was combined with Anti-Flag M2 agarose (Sigma) and incubated overnight at 4° C. with gentle shaking. The agarose was pelleted by centrifugation at 2,500 g for 5 minutes and washed with Co-IP buffer 6 times. Captured protein was eluted from the beads using loading buffer and resolved by SDS-PAGE for Western blot analysis.

HEK293 cells = test: Inclusion formation and distribution of GFP-TDP-43 constructs, confocal microscopy; type: cell-based; details: for cells with compact cytoplasmic inclusions: HEK293, 48 hours after transfection; for cellular distribution / inclusion formation: HEK293, confocal fluorescence microscopy
Description: HEK293 cells, grown on glass coverslips, were transfected with 0.3 μg of expression vector (GFP, GFP-TDP-43, GFP-TDP-43-caspase-resistant, GFP-TDP-35, GFP-TDP-25, or GFP-TDP-ΔNR1) by using Lipofectamine 2000 (Invitrogen) according to the manufacturer's instructions then subjected to immunofluorescence analysis 48 hours later. To determine if the cytoplasmic inclusion were insoluble, some cells were treated with 0.2% Triton X-100 prior to fixation, in order to remove soluble protein. To determine if the formation of inclusion was aggresome-dependent, some cells were treated with 1 μM nocodazole (Sigma) for 24 hours after 6 hours of transfection. Finally, to examine if inclusions were ubiquitinated, cells were cotransfected with 0.3 μg of a TDP-43 construct and 0.5 μg HA-ubiquitin, then subjected to immunofluorescence analysis 72 hours later.
as §1

hnRNPA2 = molecular target: T3, hnRNPA2 (Homo sapiens, UniProt P22626); test: Co-immunoprecipitation with Flag-tagged hnRNPA2; type: binding; details: HeLa cells, probing for GFP
T3 construct: expressed in transfected cells; host or cells: HeLa cells
T3 sequence (P22626 1-341 isoform P22626-2, species assumed): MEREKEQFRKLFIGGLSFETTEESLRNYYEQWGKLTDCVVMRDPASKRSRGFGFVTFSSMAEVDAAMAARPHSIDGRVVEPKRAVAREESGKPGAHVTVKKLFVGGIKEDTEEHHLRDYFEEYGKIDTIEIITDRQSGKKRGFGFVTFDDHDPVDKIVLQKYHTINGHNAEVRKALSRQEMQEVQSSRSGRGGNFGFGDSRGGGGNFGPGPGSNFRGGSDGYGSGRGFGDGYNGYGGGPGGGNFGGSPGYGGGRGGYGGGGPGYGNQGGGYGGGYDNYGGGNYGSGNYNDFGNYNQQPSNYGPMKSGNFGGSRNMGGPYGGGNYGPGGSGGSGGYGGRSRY
Description: as §2

[4] = medium collected 72 hours after transfection

Row | Molecule | LDH release compared to cells transfected with full-length or caspase-resistant TDP-43 [2, 4] | cells with compact cytoplasmic inclusions (HEK293 cells) | cellular distribution (HEK293 cells) | inclusion formation (HEK293 cells) | other results
1 | B1 |  |  |  |  | cleavage of recombinant GST-tagged TDP-43 [1]: three distinct fragments of approximately 42, 35, and 25 kD
2 | B2 | significantly higher | ~75 % of cells | cytoplasmic and nuclear distribution |  | inclusion-positive cells positive for fragmented nuclei and activated caspase-3 ([2]; quantitative analysis, Hoechst and activated caspase-3 staining): ~50%; CFTR exon 9 exclusion (endogenous TDP-43 background) ([3]; HeLa cells cotransfected with CFTR minigene, RT-PCR, compared to GFP): did not differ; exon skipping activity in cells overexpressing Flag-TDP-43 ([3]; cotransfected with CFTR mini-gene and Flag-TDP-43): did not reduce; binding to Flag-TDP-43 (Flag-TDP-43): only weakly interacted; nuclear localization of Flag-TDP-43 (HEK293 cells; HEK293 co-transfected with Flag-TDP-43): not appreciably altered; binding to hnRNPA2 (hnRNPA2): interact with hnRNPA2
3 | B3 | significantly higher |  |  | formed cytoplasmic inclusions | 
4 | B4 |  | ~25 % of cells | cytoplasmic and nuclear distribution |  | 
5 | B5 |  |  | diffuse cytoplasmic and nuclear immunoreactivity | no detectable inclusions | LDH levels compared to cells expressing only GFP [2, 4]: no different
